Assay results reported in publication PMC4434759.
pKd: −log10 of the molar value.

Molecular target: PsIAA4 PB1^AM3 (D151A/D153A/D155A) (pea (Pisum sativum))
Test: ITC

Work on “PsIAA4 PB1^BM3 (K96A/R106A/K107A) (domain or fragment)” yielded a pKd of 5.19 and a stoichiometry N of 1.
